Test results as given in patent US20230049152A1 (Genentech, published 2023).

Columns and labels:
cyno CCR8 [1] = biological target: T1, cyno CCR8 (cynomolgus monkey, UniProt O97665 1-356 (rhesus entry)); experiment: flow cytometry on human and cyno CCR8 CHO cells
T1 construct: also called cynomolgus monkey CCR8

human CCR8 = biological target: T2, human CCR8 (human, UniProt P51685 1-355); experiment: radioligand competition on CHO cells stably expressing human CCR8: fixed 125I-anti-CCR8 against serially diluted unlabelled antibody
T2 construct: the assay field says which; also called hCCR8; huCCR8
Experimental: (§1) Cell-based affinity measurements were performed using radiolabeled IgGs and CHO cell lines stably expressing human or cyno CCR8 for hu.Ab5.H13L1 and hu.Ab4.H12L3.
(§2) Briefly, stable CHO cells expressing human or cyno CCR8 were seeded in cold binding buffer (Opti-MEM+2% FBS+50 mM HEPES, pH 7.2+0.1% Sodium Azide) at 50,000 cells per well. A fixed concentration of ¹²⁵I-anti-CCR8 radiolabeled using the NEX244 Iodogen method (Perkin Elmer) was mixed with serially diluted anti-CCR8 antibodies starting at 20 nM or 50 nM. The antibody mixture was added to the cells and incubated at room temperature for 12 hours under gentle agitation. The cells and antibodies were then transferred to Millipore multiscreen filter plates. The filter plates were washed 4 times with 250 μL of cold binding buffer and dried for at least 30 minutes and the filters were punched into 5 mL polystyrene tubes. The radioactivity was measured using a Perkin Elmer Wallac Wizard 2470 Gamma Counter set at 1 count per minute with 0.8 counting efficiency. The data were fitted using the heterologous one site-fit Ki competitive binding model in GraphPad Prism.

cyno CCR8 [2] = biological target: T1, cyno CCR8; experiment: radioligand competition, 125I-labelled IgG versus unlabelled IgG on CHO cells stably expressing cyno CCR8
Experimental: as §1, §2

human ACKR4 = biological target: T3, human ACKR4 (human, UniProt Q9NPB9 1-350); experiment: flow cytometry, HEK293 with N-term FLAG-tagged human ACKR4, procedure of FIG. 4
T3 construct: whole, on cells; transiently expressed on HEK293 cells
T3 sequence (looked up): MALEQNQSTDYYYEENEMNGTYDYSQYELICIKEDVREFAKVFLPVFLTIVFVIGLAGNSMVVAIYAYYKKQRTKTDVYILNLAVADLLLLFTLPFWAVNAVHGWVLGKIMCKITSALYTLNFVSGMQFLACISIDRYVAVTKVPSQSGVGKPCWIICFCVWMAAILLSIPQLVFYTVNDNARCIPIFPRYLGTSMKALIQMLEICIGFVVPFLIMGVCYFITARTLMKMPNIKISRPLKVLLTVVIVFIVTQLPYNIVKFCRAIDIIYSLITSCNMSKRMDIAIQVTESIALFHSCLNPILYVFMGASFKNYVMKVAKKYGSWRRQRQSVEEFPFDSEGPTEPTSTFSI
Description: (§3) To confirm the selectivity to CCR8, the binding of hu.Ab3.H1L1, hu.Ab4.H1L1, and hu.Ab5.H1L1, as well as the Yoshida humanized anti-human CCR8, murine anti-human CCR8 mAb L263G8 (Biolegend, Commercial Ab) and murine anti-human CCR8 mAb 433H (BD Biosciences, Commercial Ab), were characterized by flow cytometry on HEK293 cells that were transiently transfected with plasmids encoding for FLAG-tagged other related human GPCRs (CCR2-5, CXCR4, ACKR2, and ACKR4). Cell surface expression of each GPCR was confirmed by staining with an anti-FLAG antibody control. In particular, HEK293 cells were transfected with N-term FLAG-tagged human CCR2, CCR3, CCR4, CCR5, CXCR4, ACKR2, ACKR4, hCCR8 constructs, or with a Mock construct using transIT X2 (reagent:DNA=3:1) for 24 hours, and surface stained with various anti-hCCR8 monoclonal antibodies at 5 ug/ml, or rabbit anti-Flag pAb (Sigma) followed by AF647-anti-hIgG or AF647-anti-RbIgG respectively. Antibodies hu.Ab4.H1L1, and hu.Ab5.H1L1, only stained the hCCR8-containing cells, confirming their specificity to hCCR8. […] Thus, the CCR8 selective hu.Ab4.H1L1 and hu.Ab5.H1L1 antibodies with the best ADCC activities were carried forward.
(§4) To reconfirm that the Ab4 and Ab5 variants remained selective to CCR8 compared to the corresponding HIL1 variants, binding was analyzed by flow cytometry following the procedure as described for FIG. 4A and FIG. 4B. […]

GST-FcgR3a.F158 = biological target: T4, GST-FcgR3a.F158 (UniProt P08637 17-208, limits assumed); experiment: ELISA, GST-FcgR3a.F158 captured by anti-GST antibody
T4 construct: Captured by anti-GST antibody on ELISA plate; also called FcgR3a.F158 protein; Fcgamma RIIIa F158; not shown: GST tag
T4 sequence (P08637 17-208 limits assumed): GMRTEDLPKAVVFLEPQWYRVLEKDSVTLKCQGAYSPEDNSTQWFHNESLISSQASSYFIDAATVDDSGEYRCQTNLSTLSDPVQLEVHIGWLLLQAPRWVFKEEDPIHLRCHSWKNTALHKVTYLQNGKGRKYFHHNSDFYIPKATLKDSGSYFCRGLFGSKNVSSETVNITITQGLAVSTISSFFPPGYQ
Experimental: The binding of fucosylated and afucosylated variants of hu.Ab5.H13L1 and hu.Ab4.H12L3 to both FcgR3a proteins by ELISA was studied. Briefly, an anti-GST antibody was coated on Nunc Maxisorp plates. GST-FcgR3a.V158 and GST-FcgR3a.F158 were captured at 500 ng/mL. Plates were then washed and then serially diluted anti-CCR8 antibodies starting at 100 ug/mL were incubated on the plate for 1 hour at room temperature. Plates were washed and bound antibody was detected by a HRP-conjugated anti-human IgG secondary antibody. Absorbance at 450 nm was measured by a plate reader. The data were fitted using a 4-parameter logistic curve in Softmax Pro.

human CCR2 = biological target: T5, human CCR2 (human, UniProt P41597 1-374); experiment: flow cytometry, HEK293 with N-term FLAG-tagged human CCR2, procedure of FIG. 4
T5 construct: whole, on cells; transiently expressed on HEK293 cells
T5 sequence (P41597 whole entry): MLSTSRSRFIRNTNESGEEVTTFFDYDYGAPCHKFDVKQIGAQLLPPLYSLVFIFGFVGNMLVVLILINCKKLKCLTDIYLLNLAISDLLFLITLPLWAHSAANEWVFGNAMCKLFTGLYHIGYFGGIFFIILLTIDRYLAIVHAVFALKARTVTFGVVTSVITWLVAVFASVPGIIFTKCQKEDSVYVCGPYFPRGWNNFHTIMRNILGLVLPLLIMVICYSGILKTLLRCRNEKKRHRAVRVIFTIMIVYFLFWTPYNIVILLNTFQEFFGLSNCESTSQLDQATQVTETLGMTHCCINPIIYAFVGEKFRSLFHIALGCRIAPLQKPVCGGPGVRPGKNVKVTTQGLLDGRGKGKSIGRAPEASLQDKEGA
Description: as §3, §4

T1 sequence (O97665 other isoform, or with tags, fused parts or gaps): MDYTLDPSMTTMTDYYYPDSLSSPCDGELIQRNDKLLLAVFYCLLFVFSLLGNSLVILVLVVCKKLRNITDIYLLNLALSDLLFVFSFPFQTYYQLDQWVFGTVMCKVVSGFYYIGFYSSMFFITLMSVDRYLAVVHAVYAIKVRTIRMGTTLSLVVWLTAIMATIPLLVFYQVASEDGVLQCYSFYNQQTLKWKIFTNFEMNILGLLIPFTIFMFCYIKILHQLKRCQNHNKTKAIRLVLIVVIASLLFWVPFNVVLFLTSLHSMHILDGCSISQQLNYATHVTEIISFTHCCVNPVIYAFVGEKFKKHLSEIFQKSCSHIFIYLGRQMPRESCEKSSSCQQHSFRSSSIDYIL

B1: hu.Ab4.H1L1 (antibody, human IgG1, kappa)
heavy: not shown
light: DYQMTQSPSSLSASVGDRVTITCQASQSISSYLSWYQQKPGKRPKLLIYKASTLASGVPSRFSGSGSGTDFTLTISSLQPEDFATYYCQQGYTSSNIDNIFGGGTKVEIKRTVAAPSVFIFPPSDEQLKSGTASVVCLLNNFYPREAKVQWKVDNALQSGNSQESVTEQDSKDSTYSLSSTLTLSKADYEKHKVYACEVTHQGLSSPVTKSFNRGEC
notes: also called hu.Ab4.H1Ll
binding result (cyno CCR8 [1]): binds

B2: hu.Ab4.H12L3 (antibody, human IgG1, kappa)
heavy: not shown
light: DYQMTQSPSSLSASVGDRVTITCQASQSISSYLSWYQQKPGKAPKLLIYKASTLASGVPSRFSGSGSGTDFTLTISSLQPEDFATYYCQQGYTSSNIDNIFGGGTKVEIKRTVAAPSVFIFPPSDEQLKSGTASVVCLLNNFYPREAKVQWKVDNALQSGNSQESVTEQDSKDSTYSLSSTLTLSKADYEKHKVYACEVTHQGLSSPVTKSFNRGEC
notes: fucosylated human IgG1; also called huCCR8-Ab4.H12L3.hIgG1; Ab4 variant
IC50 (read off the curve) (human CCR8): ~100 pM
Kd (cyno CCR8 [2]): 24.3 pM
binding result (human ACKR4): no binding (tested: 5 ug/ml)
EC50 (GST-FcgR3a.F158): 3.74 µg/mL
binding result (human CCR2): no binding (tested: 5 ug/ml)

B3: hu.Ab5.H1L1 (antibody, human IgG1, kappa)
heavy: not shown
light: DIQVTQSPSSLSASVGDRVTITCQASENIANALAWYQQKPGKPPKFLIYGASNLASGVPSRFSGSGSGTDFTFTISSLQPEDIATYYCQQAYYGNSFVEGTFGGGTKVEIKRTVAAPSVFIFPPSDEQLKSGTASVVCLLNNFYPREAKVQWKVDNALQSGNSQESVTEQDSKDSTYSLSSTLTLSKADYEKHKVYACEVTHQGLSSPVTKSFNRGEC
binding result (cyno CCR8 [1]): binds

B4: hu.Ab5.H13L1 (antibody, human IgG1, kappa)
heavy: not shown
light: DIQVTQSPSSLSASVGDRVTITCQASENIANALAWYQQKPGKPPKFLIYGASNLASGVPSRFSGSGSGTDFTFTISSLQPEDIATYYCQQAYYGNSFVEGTFGGGTKVEIKRTVAAPSVFIFPPSDEQLKSGTASVVCLLNNFYPREAKVQWKVDNALQSGNSQESVTEQDSKDSTYSLSSTLTLSKADYEKHKVYACEVTHQGLSSPVTKSFNRGEC
notes: fucosylated human IgG1; also called Ab5 variant
IC50 (read off the curve) (human CCR8): ~50 pM
Kd (cyno CCR8 [2]): 3.4 pM
binding result (human ACKR4): no binding (tested: 5 ug/ml)
EC50 (GST-FcgR3a.F158): 4.11 µg/mL
binding result (human CCR2): no binding (tested: 5 ug/ml)
